Test results as given in IntAct's records for PubMed 12354775.

B1: Protein naked cuticle (Drosophila melanogaster (Fruit fly)), Q9VVV9 (parent)
chain: MAGNIVKWWKHKILGGYKQFSVQECTTDSEELMYHQVRASSSCSAPPDLLLVSERDNNIQLRSPVVNIITTPPGNASGAGSKQQSHHQTNHHSSGRSHPGHTAHPQDVSSGGSHSKHLRISSTSNGKHGKYSNMQQQLPQDEDVVDAAATMQQQQHTGHAHSRHLHHHKEERIRLEEFTCDVSVEGGKSSQPLQFSFTFYDLDGHHGKITKDDIVGIVYTIYESIGKSVVVPHCGSKTINVRLTVSPEGKSKSQPVVPVPVAAGFSSSHASKLKKLPTGLAAMSKPLAGGGVGSGGASALTTSAGNRRQHRYRPRKLIKSDDEDDDSNSEKEKDAAHAPAADQPSGSGTKATGKSHHHQSQSARYHQKNNSRAEQCCTEQNTPDNGHNTYENMLNLKCCKPEVDQVDCPSHRQHHQSHPNHQMRQQDIYMKQATQRVKMLRRARKQKYQDHCLETRQRSLSVGNDSACPNRHLQLQQPPVGHPQPQSLNHKSASGSPPLGVGGGGDMMLDGVQLRQPRPHSLTPHQHQQQNQQQQQQQRKSAECWKSALNRNDLISIIRESMEKNRLCFQLNGKPQANVSPIRQPAAQQQPQQQQRQRCNTGSKIPTLITNHSPVAQQSPLSCSPPTAEPTTPSIPAAPPAIEVNGQQHHPTHPTHPSHHNHHEHPQPHIPIYHQQLAINPAVLAAQQTHNTAHNKLNLCGYDSFLHATICGGGAAAHSPPATPSNVATVQPIPKKSQKNLLQGYQRLEQSQQQQQQQRSSKDYKNYGNLIYAKLSEQLQQKDREQRRQRHKQQQHQMLQDQPKDASRSEQRPPTSNSSSAGSKIYGDAVECAHLLASEEEDLPPSPQLTSTPSKVVSTDTLIDLNDDVGEAVAEAVTEGGKQSLEAEESGQQVEVELDTSASSSMIHRYVHEHIHHHYHHFKEQQDV

Variants of: B1
Conditions: with dsh_drome dsh

Variant	effect of a mutation on the interaction
D213V	decreasing interaction
D201A	decreasing interaction
